This note sets out measurements from patent publication US20240207421A1, “NERVE TARGETING PEPTIDES AND METHODS OF USE” (ALUME BIOSCIENCES, INC., priority 2020, published 2024).

Sequence of Human Myelin Basic Protein (P02686 135-304 limits assumed): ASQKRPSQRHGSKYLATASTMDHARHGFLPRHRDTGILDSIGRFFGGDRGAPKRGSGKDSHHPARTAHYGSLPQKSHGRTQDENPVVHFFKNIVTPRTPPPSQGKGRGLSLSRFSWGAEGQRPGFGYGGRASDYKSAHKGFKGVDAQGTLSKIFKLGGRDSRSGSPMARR

One assay addresses Human Myelin Basic Protein (Homo sapiens, UniProt P02686). In words: phage display, NGS count.
HPWSHPN (peptide) returned a Count of 6.

Consider HQMRTML (peptide), for which the Count is 6.

Substance HQPLFPR (peptide) yielded a Count of 6.

HRTHLHQ (peptide) gave a Count of 6.

On to HSGPLLP (peptide), for which the Count amounted to 6.

Consider HSSATMS (peptide), for which the Count was 6.

HTGLRSL (peptide) yielded a Count of 7.

The substance HYSPNVM (peptide) came in with a Count of 9.

IGTRWHQ (peptide) registered a Count of 6.

Substance IILPSAQ (peptide) showed a Count of 8.

Take INFPFAV (peptide): the Count was 6.

Turning to IPIPYRT (peptide), the Count is 6.

For IPYSQMP (peptide), the Count is 6.

The substance KGQPLFR (peptide) showed a Count of 7.

KIITTKS (peptide) had a Count of 6.

In the case of KMSLAPP (peptide), the Count was 6.

Regarding KNSIAPR (peptide), the Count came out at 8.

As for KVHHLAR (peptide), the Count was found to be 6.

Take KYRHGAE (peptide): the Count was 7.

Substance LELHQNV (peptide) came in with a Count of 6.

Regarding LFRRVTE (peptide), the Count stood at 7.

Substance LITHPQL (peptide) registered a Count of 6.

As to LMLPQLE (peptide), the Count worked out at 6.

Turning to LPPQISR (peptide), the Count was 8.

LTKSLNH (peptide) showed a Count of 7.

LVPPVNH (peptide): the Count stood at 6.

As for MDLSLKP (peptide), the Count is 10.

For the substance MNSPLAQ (peptide), the Count amounted to 6.

As for MPLLELP (peptide), the Count is 7.

MPSLKHQ (peptide) had a Count of 8.

Consider MQRLGAD (peptide), for which the Count is 6.

MTNHGNA (peptide) registered a Count of 7.

For the substance NFAQHMQ (peptide), the Count stood at 9.

In the case of NGPNSLQ (peptide), the Count was 6.

The substance NGVSSSL (peptide) displayed a Count of 6.

In the case of NLKLWTR (peptide), the Count was found to be 7.

Turning to NLLQGVM (peptide), the Count amounted to 7.

Regarding NLTYLRF (peptide), the Count stood at 6.

In turn, NMYPRVT (peptide) returned a Count of 7.

Substance NPTDTNK (peptide) showed a Count of 8.

Substance NSSPHQI (peptide) yielded a Count of 7.

For the substance NTPKVLA (peptide), the Count turned out to be 10.

Take NTSLSFK (peptide): the Count is 8.

In turn, QGAYVRP (peptide) showed a Count of 6.

As to QGTLFDT (peptide), the Count is 7.

As for QKALPQT (peptide), the Count was 6.

The substance QNSYLSN (peptide) came in with a Count of 8.

The substance QPIDSTS (peptide) displayed a Count of 7.

For the substance QQAHLQS (peptide), the Count turned out to be 8.

Turning to QTSIMSG (peptide), the Count was 6.

As for QYWDILG (peptide), the Count is 6.

With RGHPSQL (peptide), the Count amounted to 6.

RSRKHRP (peptide) had a Count of 6.

With RTTDWWT (peptide), the Count worked out at 6.

Substance RVIPSTT (peptide) gave a Count of 6.

Regarding SAVLMPP (peptide), the Count amounted to 6.

In turn, SEGLTLL (peptide) registered a Count of 6.

In turn, SEPGTVR (peptide) registered a Count of 7.

Regarding SGNLKKA (peptide), the Count stood at 7.

The substance SGPFPLV (peptide) yielded a Count of 6.

Substance SIQTSAM (peptide) came in with a Count of 6.

In turn, SIRMTEI (peptide) gave a Count of 7.

SISKIRT (peptide) yielded a Count of 7.

SKLAGFP (peptide): the Count was determined as 6.

Regarding SKPHASH (peptide), the Count was determined as 6.

The substance SLDHLRL (peptide) registered a Count of 6.

Substance SLKTTNP (peptide) returned a Count of 6.

SLRSVGA (peptide) returned a Count of 7.

As to SLWQTLR (peptide), the Count amounted to 6.

On to SLWTHRT (peptide), for which the Count worked out at 6.

Take SNAERWR (peptide): the Count was found to be 9.

SNAHTLP (peptide) had a Count of 6.

For SPKPDIP (peptide), the Count was determined as 6.

Substance SPPRFIP (peptide) returned a Count of 8.

In turn, SRHLPPL (peptide) gave a Count of 6.

In turn, SRPTRVP (peptide) yielded a Count of 9.

In turn, SSFYVAY (peptide) displayed a Count of 6.

In turn, SSGMLSK (peptide) registered a Count of 7.

Regarding SSMRYNS (peptide), the Count worked out at 6.

Substance SVEYGQL (peptide) gave a Count of 9.

SVGLPTK (peptide) displayed a Count of 6.

The substance SWFESHN (peptide) came in with a Count of 8.

For the substance SYRSMAP (peptide), the Count was 6.

SYTLSRS (peptide) returned a Count of 7.

Turning to SYVTVFR (peptide), the Count came out at 6.

For TGNLRLY (peptide), the Count came out at 9.

TGPSSAV (peptide) returned a Count of 6.

For the substance TGSVSKQ (peptide), the Count turned out to be 6.

THKHMMT (peptide) returned a Count of 6.

Regarding TIRVAHT (peptide), the Count stood at 6.

Consider TLLTALT (peptide), for which the Count stood at 7.

Substance TPGRATL (peptide) gave a Count of 6.

For the substance TPLYLSS (peptide), the Count was 7.

With TPQVMLK (peptide), the Count stood at 8.

As for TPVLWLP (peptide), the Count came to 6.

TPVRLNT (peptide) yielded a Count of 6.

In turn, TQMTMDS (peptide) displayed a Count of 10.

With TRIPILL (peptide), the Count amounted to 6.

As for TSPPLAH (peptide), the Count was found to be 8.

As to TSRLVST (peptide), the Count was 8.

As for TTTQGHP (peptide), the Count was found to be 6.

Take VAHQRVS (peptide): the Count was 8.

Take VGTFWTR (peptide): the Count was 6.

As to VIRTAAM (peptide), the Count was 6.

For the substance VLSPYHN (peptide), the Count turned out to be 6.

Substance VPTLRIP (peptide) registered a Count of 8.

The substance VRGTPNH (peptide) had a Count of 6.

VSFTLEP (peptide) displayed a Count of 7.

Substance VVDMSTY (peptide) came in with a Count of 7.

Turning to WDLPQNR (peptide), the Count was determined as 6.

As for WDLRHSK (peptide), the Count came out at 6.

In turn, WPDLRIL (peptide) showed a Count of 7.

As to WSLPLLS (peptide), the Count was found to be 7.

Regarding WSPRWPS (peptide), the Count stood at 7.

WTYHPTT (peptide) gave a Count of 6.

As to WVPDRSL (peptide), the Count came to 6.

Take YATATPS (peptide): the Count came to 8.

As for YLPPPLP (peptide), the Count is 7.

The substance YPTYLSY (peptide) had a Count of 6.

The substance YPYVPIY (peptide) came in with a Count of 6.

YSSRLND (peptide) came in with a Count of 6.

With YTASPRW (peptide), the Count turned out to be 6.

Regarding YVNRVKQ (peptide), the Count stood at 6.

The target of a further assay is Human Myelin PLP (human) (UniProt P60201). Put plainly: phage display, NGS count.
Sequence of Human Myelin PLP (human) (P60201 2-277 limits assumed): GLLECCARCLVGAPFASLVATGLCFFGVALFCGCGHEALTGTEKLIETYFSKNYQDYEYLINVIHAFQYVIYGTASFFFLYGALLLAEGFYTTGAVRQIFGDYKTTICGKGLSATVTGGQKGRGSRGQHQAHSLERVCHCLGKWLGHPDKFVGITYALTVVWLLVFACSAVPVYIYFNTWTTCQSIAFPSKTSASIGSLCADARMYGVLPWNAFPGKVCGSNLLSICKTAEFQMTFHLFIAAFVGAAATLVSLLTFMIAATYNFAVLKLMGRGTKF
For the substance AHQSSVT (peptide), the Count came to 42.

The substance ALFQERK (peptide) showed a Count of 27.

For the substance AQASSAR (peptide), the Count was found to be 27.

For ARFVPLT (peptide), the Count was determined as 30.

The substance ASLTLAL (peptide) gave a Count of 26.

In the case of AVVAMNK (peptide), the Count was 28.

The substance DGSRDLV (peptide) returned a Count of 30.

DRHEGHR (peptide) showed a Count of 26.

With EKSTTVA (peptide), the Count was determined as 30.

Substance EPSSFTF (peptide) gave a Count of 31.

EVLYPNN (peptide): the Count was 27.

On to FRIDKSM (peptide), for which the Count was found to be 26.

Turning to FSLDRDG (peptide), the Count came out at 29.

On to FSTPTNV (peptide), for which the Count was found to be 29.

Take GHLQSLF (peptide): the Count turned out to be 26.

GIPSSKN (peptide) registered a Count of 28.

GKSYSQI (peptide): the Count turned out to be 31.

Regarding GLWGPSL (peptide), the Count came out at 26.

In turn, GNVFQTS (peptide) registered a Count of 31.

For GPAAVII (peptide), the Count turned out to be 29.

Substance GSAWKKH (peptide) gave a Count of 44.

The substance GWSTAIR (peptide) returned a Count of 29.

Substance HKAPLGT (peptide) returned a Count of 29.

The substance HLHTRPT (peptide) returned a Count of 27.

IDRVRGL (peptide) gave a Count of 29.

The substance IHHLESS (peptide) returned a Count of 32.

The substance IIPPTSV (peptide) yielded a Count of 31.

In turn, IRPTHNG (peptide) registered a Count of 27.

The substance KGVIPAT (peptide) returned a Count of 27.

Take KPSASIY (peptide): the Count was determined as 26.

In turn, LHQTYRP (peptide) returned a Count of 27.

Take LMQKPSI (peptide): the Count was determined as 29.

Take LNGISAL (peptide): the Count is 32.

LPHRLNP (peptide) returned a Count of 27.

Take LPLRLHA (peptide): the Count was 31.

As for LPSHASI (peptide), the Count was 26.

LPVKNLL (peptide) had a Count of 26.
